In this assay the target is SET-26::GFP, excessively sumoylated (from F2 ulp-2(tv380) or ulp-2(RNAi) animals) (C. elegans) (UniProt Q9U263). Description: co-IP; anti-GFP immunoprecipitation of SET-26::GFP from whole-worm lysates (1% PFA, sonicated), blot with anti-H3K4me3; WT and F2 ulp-2(tv380) backgrounds; 3 biological replicates.
Chain of UniProt Q9U263 (Q9U263 whole entry): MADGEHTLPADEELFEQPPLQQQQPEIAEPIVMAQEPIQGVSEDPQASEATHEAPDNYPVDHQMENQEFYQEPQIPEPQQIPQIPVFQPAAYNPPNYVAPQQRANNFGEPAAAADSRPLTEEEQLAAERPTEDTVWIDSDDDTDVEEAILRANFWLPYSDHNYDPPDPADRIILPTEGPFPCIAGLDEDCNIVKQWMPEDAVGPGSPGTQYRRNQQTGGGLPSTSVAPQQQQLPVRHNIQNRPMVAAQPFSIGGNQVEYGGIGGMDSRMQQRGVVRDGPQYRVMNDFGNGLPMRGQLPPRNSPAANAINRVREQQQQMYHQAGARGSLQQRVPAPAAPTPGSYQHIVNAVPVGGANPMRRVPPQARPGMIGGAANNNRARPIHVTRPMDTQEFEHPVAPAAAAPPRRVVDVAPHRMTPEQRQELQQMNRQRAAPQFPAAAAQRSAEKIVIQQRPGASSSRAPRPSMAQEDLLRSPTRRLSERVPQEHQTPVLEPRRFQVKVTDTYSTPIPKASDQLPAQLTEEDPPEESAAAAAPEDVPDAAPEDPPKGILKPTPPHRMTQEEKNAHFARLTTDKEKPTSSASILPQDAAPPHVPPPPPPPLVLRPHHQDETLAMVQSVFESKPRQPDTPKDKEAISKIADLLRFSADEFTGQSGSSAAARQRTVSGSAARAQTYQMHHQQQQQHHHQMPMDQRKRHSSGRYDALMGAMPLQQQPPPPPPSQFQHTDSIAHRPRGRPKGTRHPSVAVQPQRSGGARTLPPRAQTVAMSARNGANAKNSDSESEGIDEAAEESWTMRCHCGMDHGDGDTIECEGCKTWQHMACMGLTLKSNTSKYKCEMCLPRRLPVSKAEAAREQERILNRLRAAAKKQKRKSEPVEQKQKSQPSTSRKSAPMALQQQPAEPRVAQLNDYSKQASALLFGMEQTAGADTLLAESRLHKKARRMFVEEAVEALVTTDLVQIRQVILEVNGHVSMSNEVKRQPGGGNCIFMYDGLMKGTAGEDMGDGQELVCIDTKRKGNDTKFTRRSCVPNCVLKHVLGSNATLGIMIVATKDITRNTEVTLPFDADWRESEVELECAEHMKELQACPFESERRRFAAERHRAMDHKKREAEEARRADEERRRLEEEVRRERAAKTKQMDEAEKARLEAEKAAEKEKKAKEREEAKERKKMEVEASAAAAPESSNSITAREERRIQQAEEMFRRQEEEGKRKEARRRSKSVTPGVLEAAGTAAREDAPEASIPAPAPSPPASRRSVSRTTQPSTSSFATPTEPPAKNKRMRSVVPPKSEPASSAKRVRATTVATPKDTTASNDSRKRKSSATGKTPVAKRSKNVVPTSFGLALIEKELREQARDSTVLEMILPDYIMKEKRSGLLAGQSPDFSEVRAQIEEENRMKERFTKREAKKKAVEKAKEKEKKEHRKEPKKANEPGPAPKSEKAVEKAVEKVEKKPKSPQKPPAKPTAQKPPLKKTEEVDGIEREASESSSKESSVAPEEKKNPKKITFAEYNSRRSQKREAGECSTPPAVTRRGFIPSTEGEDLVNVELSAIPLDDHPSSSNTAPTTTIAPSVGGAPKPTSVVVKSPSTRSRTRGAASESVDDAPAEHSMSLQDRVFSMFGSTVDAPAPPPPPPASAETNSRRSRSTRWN

Regarding “Histone H3 tri-methylated at lysine 4 (H3K4me3) (from UniProt P08898 1-136) (natural protein)”, the reduction of binding compared with WT came to 55%.

The record behind these values is PMC11703099.
